Source: the supplement of paper PMC11246515
± gives the standard deviation of the averaged measurements.

Assay: total protein half-life in vivo (active degradation + dilution); higher = more stable protein
[1] = E. coli NCM3722 delta-clpP delta-lon delta-hslV, growth: N-lim chemostat, doubling time 6 h
[2] = E. coli NCM3722 delta-clpP, growth: N-lim chemostat, doubling time 6 h
[3] = wild type E. coli NCM3722, growth: C-lim chemostat, doubling time 3 h
[4] = wild type E. coli NCM3722, growth: C-lim chemostat, doubling time 6 h
[5] = wild type E. coli NCM3722, growth: C-lim chemostat, doubling time 12 h
[6] = wild type E. coli NCM3722, growth: N-lim chemostat, doubling time 6 h
[7] = wild type E. coli NCM3722, growth: N-lim chemostat, doubling time 12 h
[8] = wild type E. coli NCM3722, growth: P-lim chemostat, doubling time 6 h
[9] = wild type E. coli NCM3722, growth: P-lim chemostat, doubling time 12 h

| Sequence | total protein half-life in vivo [1] [h] | total protein half-life in vivo [2] [h] | total protein half-life in vivo (E. coli NCM3722 delta-hslV, growth: N-lim chemostat, doubling time 6 h) [h] | total protein half-life in vivo (E. coli NCM3722 delta-lon, growth: N-lim chemostat, doubling time 6 h) [h] | total protein half-life in vivo (E. coli NCM3722 delta-smpB, growth: N-lim chemostat, doubling time 6 h) [h] | total protein half-life in vivo [3] [h] | total protein half-life in vivo [4] [h] | total protein half-life in vivo [5] [h] | total protein half-life in vivo [6] [h] | total protein half-life in vivo [7] [h] | total protein half-life in vivo [8] [h] | total protein half-life in vivo [9] [h] |
| --- | --- | --- | --- | --- | --- | --- | --- | --- | --- | --- | --- | --- |
| MSTPDNHGKKAPQFAAFKPLTTVQNANDCCCDGACSSTPTLSENVSGTRYSWKVSGMDCAACARKVENAVRQLAGVNQVQVLFATEKLVVDADNDIRAQVESALQKAGYSLRDEQAAEEPQASRLKENLPLITLIVMMAISWGLEQFNHPFGQLAFIATTLVGLYPIARQALRLIKSGSYFAIETLMSVAAIGALFIGATAEAAMVLLLFLIGERLEGWAASRARQGVSALMALKPETATRLRKGEREEVAINSLRPGDVIEVAAGGRLPADGKLLSPFASFDESALTGESIPVERATGDKVPAGATSVDRLVTLEVLSEPGASAIDRILKLIEEAEERRAPIERFIDRFSRIYTPAIMAVALLVTLVPPLLFAASWQEWIYKGLTLLLIGCPCALVISTPAAITSGLAAAARRGALIKGGAALEQLGRVTQVAFDKTGTLTVGKPRVTAIHPATGISESELLTLAAAVEQGATHPLAQAIVREAQVAELAIPTAESQRALVGSGIEAQVNGERVLICAAGKHPADAFTGLINELESAGQTVVLVVRNDDVLGVIALQDTLRADAATAISELNALGVKGVILTGDNPRAAAAIAGELGLEFKAGLLPEDKVKAVTELNQHAPLAMVGDGINDAPAMKAAAIGIAMGSGTDVALETADAALTHNHLRGLVQMIELARATHANIRQNITIALGLKGIFLVTTLLGMTGLWLAVLADTGATVLVTANALRLLRRR | 4.91 ± 0.22 | 4.33 ± 0.16 | 4.07 ± 0.092 | 5.05 ± 0.95 | 4.331 ± 0.021 | 2.62 ± 0.26 | 4.55 ± 0.4 | 6.13 ± 1.8 | 3.874 ± 0.016 | 7.59 ± 0.2 | 4.2 ± 0.081 | 7.64 ± 0.21 |
| MSTPSARTGGSLDAWFKISQRGSTVRQEVVAGLTTFLAMVYSVIVVPGMLGKAGFPPAAVFVATCLVAGLGSIVMGLWANLPLAIGCAISLTAFTAFSLVLGQHISVPVALGAVFLMGVLFTVISATGIRSWILRNLPHGVAHGTGIGIGLFLLLIAANGVGLVIKNPLDGLPVALGDFATFPVIMSLVGLAVIIGLEKLKVPGGILLTIIGISIVGLIFDPNVHFSGVFAMPSLSDENGNSLIGSLDIMGALNPVVLPSVLALVMTAVFDATGTIRAVAGQANLLDKDGQIIDGGKALTTDSMSSVFSGLVGAAPAAVYIESAAGTAAGGKTGLTAITVGVLFLLILFLSPLSYLVPGYATAPALMYVGLLMLSNVAKIDFADFVDAMAGLVTAVFIVLTCNIVTGIMIGFATLVIGRLVSGEWRKLNIGTVVIAVALVTFYAGGWAI [P0AF52] | 6.73 ± 0.3 | 6.71 ± 0.4 | – | – | – | 3.4 ± 0.27 | 6.122 ± 0.032 | 13.3 ± 3.4 | 6.45 ± 0.33 | 12.2 ± 0.93 | 6.39 ± 0.3 | 14.2 ± 1.6 |
| MSTRLTTLSHTSEGHRVSVHYGYDDKGRLTGERQTVENPETGELLWHHETGHAYNEQGLANRVTPDSLPPVEWLTYGSGYLAGMKLGGTPLLEFTRDRLHRETVRSFGSMAGSNAAYKLTSTYTPAGQLQSQHLNSLVYDRDYGWNDNGDLVRISGPRQTREYGYSATGRLESVRTLAPDLDIRIPYATDPAGNRLPDPELHPDSTLTVWPDNRIAEDAHYVYRHDEYGRLTEKTDRIPAGVIRTDDERTHHYHYDSQHRLVFYTRIQHGEPLVESRYLYDPLGRRMAKRVWRRERDLTGWMSLSRKPEVTWYGWDGDRLTTVQTDTTRIQTVYEPGSFTPLIRVETENGEREKAQRRSLAETLQQEGSENGHGVVFPAELVRLLDRLEEEIRADRVSSESRAWLAQCGLTVEQLARQVEPEYTPARKVHFYHCDHRGLPLALISEDGNTAWRGEYDEWGNQLNEENPHHLHQPYRLPGQQHDEESGLYYNRHRHYDPLQGRYITPDPIGLRGGWNMYQYPLNPIQVIDPMGLDAIENMTSGGLIYAVSGVPGLIAANSITNSAYQFGYDMDAIVGGAHNGAADAMRHCYLMCRMTKTFGSTIADVIGKNHEAAGDRQGQPAKERIMDLKNNTVGIACGDFSAKCSDACIEKYNTGQLFGLDGIKADNPIKAKQGSSDASNY | 3.27 | – | – | – | – | – | – | – | – | – | – | – |
